Results: patent publication EP2351583A1

Target: AAB1/B2Fc
Assay: SPR (BIAcore), Fab immobilized on Pioneer F1 chip, AAB1/B2Fc as analyte

B1: Fab fragment F200 (Fab, V domains shown)
VH: QVQLKESGPGLVAPSQSLSITCTISGFSLTDYGVHWVRQPPGKGLEWLVVIWSDGSSTYNSALKSRMTIRKDNSKSQVFLIMNSLQTDDSAMYYCARHGTYYGMTTTGDALDYWGQGTSVTVSS
VL: QIVLTQSPAIMSASLGERVTMTCTASSSVSSNYLHWYQQKPGSAPNLWIYSTSNLASGVPARFSGSGSGTSYSLTISSMEAEDAATYYCHQYLRSPPTFGGGTKLEIKR
Kd: 0.332 nM
